Assays:
[1] = molecular target: Protein Kinase A catalytic subunit (bos taurus) (UniProt P00517); assay: cell-based or functional assay
[2] = molecular target: Protein Kinase A catalytic subunit (bos taurus) (UniProt P00517); assay: holoenzyme formation with CS; method and reference not described

“Protein Kinase A regulatory subunit (RIα isomer), double Cys mutant (Ser 145→Cys; Gly 235→Cys), no DNA coupled (from UniProt Q9DBC7 1-381)” was tested, and the inhibitory effects (on kinase activity) relative to the wild type RS [1] was over 80% and the kinase activity, fold increase on addition of cAMP to the holoenzyme built with the Cys mutant without DNA (FIG. 17b) [1] was 3 fold.

With “RIα-DNA chimera: PKA regulatory subunit (Ser 145→Cys; Gly 235→Cys) with a single stranded DNA 60 mer coupled to the two Cys residues (from UniProt Q9DBC7 1-381)” the kinase activity, fold increase on addition of cAMP to the chimera holoenzyme, batch of FIG. 17a [1] was 3 fold, the kinase activity, fold increase on addition of cAMP to the chimera holoenzyme, second batch (FIG. 17b) [1] was 2 fold and the γcAMP (case γDNA<γcAMP) [1] was 2.3 fold. It also gave a γcAMP (increase in activity by cAMP; case γDNA≧γcAMP) [1] of 2.6 fold and a decrease in associating with the CS to form the holoenzyme [2] of 20%.

Substance “RIα-DNA chimera hybridized with the complementary DNA 60 mer (ds chimera, under mechanical tension) (from UniProt Q9DBC7 1-381)” has a kinase activity (Luciferase assay, ATP disappearance), fold increase over the ss chimera holoenzyme, batch of FIG. 17a [1] of 2 fold, a kinase activity, increase over the ss chimera holoenzyme, second synthesis batch (FIG. 17b) [1] of 50% and a γDNA (increase in activity by the complementary DNA, corrected for the yield; case γDNA≧γcAMP) [1] of 2.7 fold.

From patent US20110275057A1
